Consider four molecules from patent US20050084449A1 (CELLDEX THERAPEUTICS, published 2005).

In experiment [1] the target is T1, TIM-1 peptide D) PMPLPRQN (human).
T1 peptide: PMPLPRQN
Briefly: peptide ELISA. On the technique in general: ELISA stands for enzyme-linked immunosorbent assay.

A further experiment deals with T2, TIM-1 peptide E) PMPLPR (human).
T2 peptide: PMPLPR
The experiment is described as follows: peptide ELISA.

Experiment [2] concerns the target T3, TIM-1 peptide G) PRQNHEPVAT (human).
T3 peptide: PRQNHEPVAT
Briefly: peptide ELISA.

Experiment [3] deals with T4, TIM-1 peptide H) QNHEPVAT (human).
T4 peptide: QNHEPVAT
Briefly: peptide ELISA.

The target of the next experiment is T5, TIM-1 peptide I) HEPVAT (human).
T5 peptide: HEPVAT
Briefly: peptide ELISA.

Experiment [4] has as its target T6, synthetic peptide PMPLARQNHE (SEQ ID NO:99).
T6 peptide: PMPLARQNHE
Briefly: peptide ELISA, alanine scan.

Experiment [5] deals with T7, synthetic peptide PMPLPRQAHE (SEQ ID NO:102).
T7 peptide: PMPLPRQAHE
The experiment is described as follows: peptide ELISA, alanine scan.

Experiment [6] concerns the target T8, TIM-1 antigen, cell membrane-bound (on ACHN, CAKI-2, CAKI-1 renal cancer cells and polarized/activated human … (human, UniProt Q96D42 21-364)).
T8 construct: whole, on cells; Endogenous protein on cells; also called HAVcr-1; KIM-1
T8 sequence (looked up): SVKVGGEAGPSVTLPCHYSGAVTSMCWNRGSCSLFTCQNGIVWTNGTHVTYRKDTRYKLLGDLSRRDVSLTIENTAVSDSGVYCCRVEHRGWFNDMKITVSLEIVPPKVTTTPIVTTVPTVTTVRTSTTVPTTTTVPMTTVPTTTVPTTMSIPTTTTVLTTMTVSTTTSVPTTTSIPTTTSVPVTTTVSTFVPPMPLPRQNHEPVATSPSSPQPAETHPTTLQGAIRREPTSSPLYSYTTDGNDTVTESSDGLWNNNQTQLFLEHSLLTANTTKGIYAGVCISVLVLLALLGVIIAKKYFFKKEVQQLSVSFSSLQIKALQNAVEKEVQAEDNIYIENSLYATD
The experiment is described as follows: FACS on polarized human CD4+ Th2 cells, 10 ug/mL mAb.

For experiment [7], the target named is T8, TIM-1 antigen, cell membrane-bound (on …). Briefly: FACS on ACHN cells, normalized to isotype control pK16.
For experiment [8] the target is unchanged. The experiment is described as follows: FACS on CAKI-2 cells, normalized to isotype control pK16.

B1: anti-TIM-1 mAb 2.70 (antibody, V domains shown)
VH: QVQLVESGGGVVQPGRSLRLSCAASGFIFSRYGMHWVRQAPGKGLKWVAVIWYDGSNKLYADSVKGRFTISRDNSKNTLYLQMNSLRAEDTAVYYCARDYYDNSRHHWGFDYWGQGTLVTVSS
VL: DIVMTQTPLSLPVTPGEPASISCRSSRSLLDSDDGNTYLDWYLQKPGQSPQLLIYTLSYRASGVPDRFSGSGSGTDFTLKISRVEAEDVGVYYCMQRVEFPITFGQGTRLEIKR
notes: Subclone 2.70.2 is treated as the same antibody because its printed variable regions are identical; also called 2.70.2 (subclone); TIM-1 2.70.2
Regarding B1, the binding result (in experiment [1]; with TIM-1 peptide E) PMPLPR; in experiment [2]; in experiment [3]; with TIM-1 peptide I) HEPVAT; in experiment [4]) was “no binding” throughout. The binding result in experiment [5] was “no binding”. Also, the “Geometric mean of fluorescence intensity” value in [6] was found to be 27.8. Moreover, the “Geo Mean Ratio (relative to negative control)” value in experiment [7] turned out to be 19.4 ratio; in [8] it was 8.8 ratio.

B2: anti-TIM-1 mAb 2.16 (antibody, V domains shown)
VH: EQSGGGVVKPGGSLRLSCAASGFTFSNAWMTWVRQAPGKGLEWVGRIKRRTDGGTTDYAAPVKGRFTISRDDSKNTLYLQMNNLKNEDTAVYYCTSVDNDVDYWGQGTLVTVSS
VL: not shown
notes: also called 2.16.1 (subclone)
For B2, in experiment [7], the “Geo Mean Ratio (relative to negative control)” value came out at 7.9 ratio.

B3: anti-TIM-1 mAb 1.29 (antibody, human IgG2, V domains shown)
VH: QVQLQESGPGLVKPSETLSLTCTVSGGSVSSGGYYWSWIRQPPGKGLEWIGFIYYTGSTNYNPSLKSRVSISVDTSKNQFSLKLSSVTAADAAVYYCARDYDWSFHFDYWGQGTLVTVSS
VL: DIQMTQSPSSLSASIGDRVTITCRASQGIRNDLGWYQQKPGKAPKRLIYAASSLQSGVPSRFSGSGSGTEFTLTISSLQPEDFATYYCLQHNSYPLTFGGGTKVEIKR
Consider B3, for which, in experiment [6], the “Geometric mean of fluorescence intensity” value came to 22.3. Further, the “Geo Mean Ratio (relative to negative control)” value in experiment [7] is 17.9 ratio.

B4: anti-TIM-1 mAb 2.59 (antibody, human IgG4, V domains shown)
VH: QSGPRLVKPSQTLSLTCTVSGGSISSDGYYWSWIRQHPGKGLEWIGYIYYSGSTFYNPSLKSRVAISVDTSKNQFSLKLSSVTAADTAVYYCARESPHSSNWYSGFDCWGQGTLVTVSS
VL: TQSPDFQSVTPKEKVTITCRASQSIGSRLHWYQQKPDQSPKLLIKYASQSFSGVPSRFSGSGSGTDFTLTINSLEAEDAATYYCHQSSNLPFTFGPGTKVDIKR
notes: Biotinylated for IHC
B4: the “Geometric mean of fluorescence intensity” value in [6] was 22. In addition, the “Geo Mean Ratio (relative to negative control)” value amounted to 15.2 ratio in [7] and 7.7 ratio in experiment [8].
